Paper PMC8050884

Experiments:
[1] = molecular target: soluble trimeric SARS-CoV-2 spike protein ectodomain (residues 1-1211) with phage foldon trimerization motif, 6xHis tag and AviTag (SARS-CoV-2 | not stated) (UniProt P0DTC2); assay: negative stain electron microscopy
[2] = molecular target: SARS-CoV-2 spike trimer (aa 1-1208, furin site mutated, K986P/V987P) fused to human resistin (aa 23-108), FLAG-(His)6 (SARS-CoV-2 | human) (UniProt P0DTC2); assay: SEC-MALS; SEC-UPLC in PBS + 0.02% Tween-20 on Acquity BEH450 column coupled to MALS detector and refractometer; data not shown

| Substance | stoichiometry N [1] | stoichiometry N [2] |
| --- | --- | --- |
| soluble trimeric SARS-CoV-2 spike protein ectodomain (residues 1-1211) with phage foldon trimerization motif, 6xHis tag and AviTag (from UniProt P0DTC2 14-1211) | 3 | – |
| SARS-CoV-2 spike trimer (aa 1-1208, furin site mutated, K986P/V987P) fused to human resistin (aa 23-108), FLAG-(His)6 (from UniProt P0DTC2;Q9HD89) | – | 3 |
